# Results as given in patent publication US20210138066A1, “REMOTE-CONTROLLED IMAGE-GUIDED DRUG DELIVERY VIA ULTRASOUND-MODULATED MOLECULAR DIFFUSION” (California Institute of Technology, priority 2019, published 2021).
# Test: Payloads added to the reservoir: Stokes' diameter
# Type: physicochemical
substance,measurement,value
Adalimumab,Stokes' Diameter,10 nm
